Results published in patent US7427498B2, “Composition, methods and reagents for the synthesis of a soluble form of human PHEX” (Universite De Montreal, priority 1999, dated 2008).
“Also recorded” adds a separate entry of the source.

Columns and labels:
secPHEX = test: Inhibition of secPHEX enzymatic activity (cleavage of PTHrP107-139, RP-HPLC); format: biochemical, human; conditions: 0.001 M inhibitor added to the reaction mixture
Procedure: (§1) FIG. 6: Enzymatic assay for secPHEX. Purified secPHEX (2 μg) was incubated in the presence of 10 μg PTHrP107-139 and the reaction mixture analyzed by RP-HPLC.
(§2) An aliquot of purified PHEX containing 2 μg of protein was incubated for 15 min at 37° C. in a volume of 200 μl of 50 mM MES (2-(N-Morpholinoethanesulfonic acid, pH 6.5, containing 150 mM NaCl and 10 μg of PTHrP107-139 as a substrate. After the incubation period, the hydrolysis was stopped by the addition of trifluoroacetic acid to a final concentration of 0.1%. Identification of peptide products was performed by reverse phase high performance liquid chromatography (RP-HPLC) on a C18 μBondapak analytical column (Waters) with a UV detector set at 214 nm. Peptides were resolved with a linear gradient of 5% B to 85% B in 45 min at the flow rate of 0.4 ml/min [mobile phase A=0.1% trifluoroacetic acid; mobile phase B=80% acetonitrile (CH3CN), 0.1% trifluoroacetic acid].

PTHrP107-139, P12272 = biological target: T1, PTHrP107-139, P12272
T1 chain: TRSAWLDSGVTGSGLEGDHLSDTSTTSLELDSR

PTHrP107-139 = test: Assay for the activity of PHEX: digestion of PTHrP107-139 by purified secPHEX, RP-HPLC; format: biochemical
Procedure: as §1, §2

`O=C(O)CN(CCN(CC(=O)O)CC(=O)O)CC(=O)O` [EDTA] was tested, and the “inhibition of secPHEX enzymatic activity (degradation of PTHrP107-139)” value (secPHEX) was “totally inhibited; also recorded: fully inhibited”.

In the case of `c1cnc2c(c1)ccc1cccnc12` [O-phenantrolin], the “inhibition of secPHEX enzymatic activity (degradation of PTHrP107-139)” value (secPHEX) is reported as “fully inhibited”.

B1: secPHEX, soluble secreted form of recombinant human PHEX (construct 3, pCDNA3/RSV/PHEX-MutE) (protein)
chain: MEAETGSSVETGKKANRGTRIALVVFVLTVIAQQTTSQGLLSLQAKQEYCLKPECIEAAAAILSKVNLSVDPCDNFFRFACDGWISNNPIPEDMPSYGVYPWLRHNVDLKLKELLEKSISRRRDTEAIQKAKILYSSCMNEKAIEKADAKPLLHILRHSPFRWPVLESNIGPEGVWSERKFSLLQTLATFRGQYSNSVFIRLYVSPDDKASNEHILKLDQATLSLAVREDYLDNSTEAKSYRDALYKFMVDTAVLLGANSSRAEHDMKSVLRLEIKIAEIMIPHENRTSEAMYNKMNISELSAMIPQFDWLGYIKKVIDTRLYPHLKDISPSENVVVRVPQYFKDLFRILGSERKKTIANYLVWRMVYSRIPNLSRRFQYRWLEFSRVIQGTTTLLPQWDKCVNFIESALPYVVGKMFVDVYFQEDKKEMMEELVEGVRWAFIDMLEKENEWMDAGTKRKAKEKARAVLAKVGYPEFIMNDTHVNEDLKAIKFSEADYFGNVLQTRKYLAQSDFFWLRKAVPKTEWFTNPTTVNAFYSASTNQIRFPAGELQKPFFWGTEYPRSLSYGAIGVIVGHEFTHGFDNNGRKYDKNGNLDPWWSTESEEKFKEKTKCMINQYSNYYWKKAGLNVKGKRTLGENIADNGGLREAFRAYRKWINDRRQGLEEPLLPGITFTNNQLFFLSYAHVRCNSYRPEAAREQVQIGAHSPPQFRVNGAISNSEEFQKAFNCPPNSTMNRGMDSCRLW
In the case of B1, the “PTHrP107-139 peak on the chromatogram (RP-HPLC) after 15 min of incubation” value (PTHrP107-139, P12272) is reported as “PTHrP107-139 peak on the chromatogram was decreased to 15% of its original surface after only 15 min of incubation”, the “PTHrP107-139 peak on the chromatogram, % of its original surface” value (PTHrP107-139; 2 μg secPHEX, 10 μg PTHrP107-139, 15 min at 37° C., 50 mM MES pH 6.5, 150 mM NaCl) is reported as 15% and the “enzymatic activity in other buffers” value (PTHrP107-139; Acetate, HEPES and Tris buffers covering a pH range from 4.0 to 8.5) is reported as “Activity was also observed”. The “enzymatic activity on PTHrP107-139 (qualitative)” value (PTHrP107-139; purified secPHEX, conditions of Methods) was “active; also recorded: can degrade this peptide”.
